This passage reports Kd results from US20230183339A1.

The experiment has as its target FcRn. Briefly: BIAcore at pH 6.0. In general terms: Surface plasmon resonance follows binding to a sensor surface in real time, without labels.

For wild-type irrelevant IgG1 (antibody), the Kd (in general, the free concentration of one partner at which half of the binding sites on the other are occupied at equilibrium, for simple one-to-one binding) was 1640 nM.
For the substance wild-type irrelevant IgG4 (antibody), the dissociation constant (Kd) turned out to be 3640 nM.
